Results taken from publication PMC6981215.

Target: Momordica charantia 7S globulin (Momordica charantia)
Test: SEC; HiLoad 16/60 Superdex 200 pg, 50 mM Tris pH 7.4 with 150 mM NaCl, 0.5 ml/min; peak at ~69.2 ml, mass estimated from a calibration with high molecular weight standards

stoichiometry N: 3
Substance: Momordica charantia 7S globulin (natural protein)
